# Data: the supplement of paper PMC10126150
# ± gives the standard deviation of the averaged measurements.
# Test system: ATP
# Assay: switch fluorescence ratio, 500 uM ATP over buffer (Cy3 cluster intensity, sum of 5 cycles each) (fold (ratio)); higher = stronger signal-on switching upon ATP binding; sequences stand for … in TCGTCGGCAGCGTCAGATGTGTATAAGAGACAGTTTTTTTTTTTTTTTTTTTTTTTTT…TC
# Details: aptamer strand: ATP DNA aptamer (quencher-CACCTGGGGGAGTATTGCGGAGGAAGG + anchor), 100 nM annealed; ATP concentration: 500 uM
# Procedure, shortened: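 Cy3-labelled switching-strand clusters on a modified Illumina MiSeq flow-cell were annealed to 100 nM quencher-labelled ATP aptamer, imaged in selection buffer, then imaged after 15 min with 500 uM ATP at 22 °C. Five buffer/ATP cycles ran, with NaOH stripping and re-annealing between them. The fluorescence ratio is summed target-cycle over summed buffer-cycle Cy3 intensity per cluster, averaged per switch-domain sequence. Clusters outside 100-1000 RFU were excluded.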
# 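Further: ATP exposure 15 min at 22 °C before imaging.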
row,Sequence,switch fluorescence ratio
1,CGTATAGTTT,0.9865 ± 0.0096
2,TATTCGGATT,0.984 ± 0.03
3,GGGGTACTTT,0.991 ± 0.026
4,TCGGGGTTA,0.979 ± 0.029
5,GCGATTGTAA,0.985 ± 0.024
6,CAGGCGAGTG,0.96 ± 0.014
7,ATACATAACG,1.38 ± 0.052
8,TTACATAGGG,1.019 ± 0.0079
9,GAGGAGGGGC,1.02 ± 0.054
10,TTTTAATTAT,1.05 ± 0.026
11,TTGTTCCATA,1 ± 0.033
12,TTTTATCGAG,0.9893 ± 0.0093
13,CGGGTTTGAC,0.984 ± 0.047
14,TGAGGTTAGA,1.03 ± 0.029
15,CTGAAGAATT,1.03 ± 0.015
16,TTGTGTGGGC,1.04 ± 0.047
17,ATATTTCATT,0.961 ± 0.012
18,TTGGGTCGGA,0.992 ± 0.029
19,GCTGAGAGGC,1 ± 0.038
20,TATTGGGGCG,0.982 ± 0.017
21,CGTGTTGTTT,1.003 ± 0.01
22,TTTCGGGGCT,1 ± 0.052
23,ATATTTTTTA,0.9761 ± 0.0095

row,Sequence,switch fluorescence ratio
1,TACCATGGTA,0.987 ± 0.035
2,TAATTTTTGG,0.992 ± 0.023
3,TCGAGGCGGA,0.985 ± 0.049
4,GAACGGGGGT,1 ± 0.015
5,GCCCCAGGGG,4.81 ± 0.36
6,TTTGCATGTA,1.02 ± 0.027
7,ATCAAACGAG,1.006 ± 0.0073
8,TTTAGAGTGT,1.044 ± 0.0087
9,TGTTACGGTG,1.002 ± 0.0031
10,AAATAGGCA,0.981 ± 0.017
11,CCGGACTTGG,0.96 ± 0.09
12,AAGGTAGCTT,1.011 ± 0.0094
13,CTAACAGGGG,1.426 ± 0.0043
14,GAGGTGAGAG,1.02 ± 0.058
15,TTCACATTGG,1.01 ± 0.03
16,TTTTCAGGGT,1.01 ± 0.025
17,GAAAAGGTAA,1.025 ± 0.0033
18,TTATTAGGAT,0.974 ± 0.024
19,CGGGGGGTTG,0.984 ± 0.033
20,CGTGGTGCTC,1.07 ± 0.043
21,TTGGAACGGG,1.02 ± 0.011
22,TGGTTTTCGC,0.975 ± 0.023
23,ACGGTCGGA,0.9979 ± 0.0048

row,Sequence,switch fluorescence ratio
1,ATATTGGTTT,0.997 ± 0.011
2,TTAAAGCGGC,0.993 ± 0.083
3,TACCGTTTTT,1.01 ± 0.045
4,GGTCGTTGAA,1.02 ± 0.057
5,TGCTGGAGGG,0.955 ± 0.011
6,TTATAAAGGA,1.05 ± 0.046
7,GGGCAAGAAG,1.021 ± 0.0073
8,TTGCTTGCGT,1.01 ± 0.03
9,TCAGGGGCCT,1.03 ± 0.044
10,TGTATAAAGG,1.009 ± 0.0069
11,AAGTCGAGTG,0.994 ± 0.075
12,ATACCAATGA,1.05 ± 0.029
13,TTATTATGGG,0.987 ± 0.0073
14,GCGCGCGGAA,1.016 ± 0.0016
15,CGTGGTTGCA,0.989 ± 0.018
16,TTGGGTAGCA,0.9968 ± 0.0098
17,ATCAACTTAT,1.02 ± 0.044
18,ATTAAAAAAG,0.985 ± 0.028
19,GTCGCGTAGG,1.03 ± 0.024
20,AAATAGGGGG,0.967 ± 0.026
21,ATTGTTAATG,0.98 ± 0.046
22,TTCCTTGGTC,1.18 ± 0.24
23,TAATGGGGGA,1.01 ± 0.016

row,Sequence,switch fluorescence ratio
1,AGGGTTTTAT,1.003 ± 0.0048
2,CGCTCTAAAA,1.01 ± 0.011
3,GTGGGTGCAG,1.03 ± 0.041
4,GGCCATCTGG,1.04 ± 0.026
5,CAAAAAGTTG,1.02 ± 0.093
6,AAAATTAGGC,0.919 ± 0.063
7,GCCGCTTGCA,0.9973 ± 0.0053
8,GTGTAGATTA,1.02 ± 0.014
9,CAATTATTCG,1.04 ± 0.052
10,TTGGGGATAT,0.998 ± 0.039
11,TCTTGTTAT,1.01 ± 0.051
12,ACAGGGTTGT,0.979 ± 0.013
13,TCATGTAAGA,0.998 ± 0.024
14,TTTACGCGGG,1.04 ± 0.075
15,TTCAGGAGAC,1.01 ± 0.041
16,CCAGCTACGG,1.06 ± 0.053
17,AGAGGGGTCT,1.02 ± 0.043
18,TTGGACATTT,0.999 ± 0.013
19,ATTGGGTTGG,0.998 ± 0.019
20,ATTCGCTTCT,1.02 ± 0.013
21,GGGTAGATGG,0.9704 ± 0.0062
22,CGTAGGGGTC,0.959 ± 0.042
23,GCAGTTAGTT,1.01 ± 0.033

row,Sequence,switch fluorescence ratio
1,AGGGAGTGGG,0.968 ± 0.027
2,GGGGTTGTGC,0.971 ± 0.035
3,TAAAGGGATT,0.994 ± 0.032
4,CGCCCCTGGG,1.13 ± 0.18
5,CCGGCGGGCT,1.05 ± 0.013
6,TTTTCGACGA,1.27 ± 0.3
7,CTTCTGTGGC,1.071 ± 0.0073
8,CTTGGGGGCT,1.002 ± 0.0097
9,AATTCCGAGG,1.14 ± 0.021
10,CTCGACATTT,1.02 ± 0.027
11,TCTGCTTCCG,1.03 ± 0.02
12,TTGGGTAAGT,1.016 ± 0.0059
13,TTTTGATGGG,0.981 ± 0.055
14,AAACTTAATC,1.04 ± 0.05
15,CCATAGTTTG,0.993 ± 0.018
16,GACGATATGT,1.07 ± 0.041
17,AATTTAGGAA,0.975 ± 0.037
18,AAAAAGGATA,0.9884 ± 0.0013
19,GATCATCAGG,1 ± 0.012
20,TTTGTATAGT,1.003 ± 0.0019
21,CGTGGGGAGT,1 ± 0.012
22,CAGGGCCTGT,1.01 ± 0.028
23,TTTGTAAGGT,1.032 ± 0.0089

row,Sequence,switch fluorescence ratio
1,TGTTGTGACA,0.967 ± 0.026
2,CAATATGCCG,0.968 ± 0.026
3,CCATGGGTTC,1.0016 ± 0.00068
4,CCCCGTTAGT,1.01 ± 0.08
5,TATAGGGGGG,1 ± 0.017
6,TGTCAGGGGG,1.01 ± 0.023
7,TTGGGAAGAT,0.981 ± 0.018
8,CTGGTCATTT,0.997 ± 0.069
9,ATCGGAGGTC,0.978 ± 0.037
10,ACGATTGGGT,0.992 ± 0.013
11,GCATGCGGGA,1.02 ± 0.074
12,TGGAAAAAG,0.989 ± 0.053
13,GGACCTGGCG,1.08 ± 0.15
14,ATTGATTGCG,0.989 ± 0.013
15,TTGGGAAGGT,0.982 ± 0.049
16,CAGTAGAATT,1.02 ± 0.023
17,TTGTTGTCGG,0.956 ± 0.013
18,CATGATGGGG,0.96 ± 0.027
19,CCATGCACTG,1.017 ± 0.0028
20,ATTTAAGGAC,1.04 ± 0.032
21,AGCTGTGATG,1.01 ± 0.058
22,AGCGGGGCTG,1.01 ± 0.029
23,TCGTTCCGGT,1.02 ± 0.026

row,Sequence,switch fluorescence ratio
1,AGTTTGGGTG,1.01 ± 0.0051
2,TTCCGTTATG,1.04 ± 0.037
3,GGGTATTAGC,0.982 ± 0.053
4,TGGAGGGGGC,1.01 ± 0.046
5,TAGCGGTGTC,1.07 ± 0.021
6,ATAAGATGCC,0.963 ± 0.014
7,TGTAGTTGGA,0.973 ± 0.032
8,GTATGAGTCG,1.01 ± 0.085
9,GTTGAATTTT,1.01 ± 0.032
10,GGTCAGGGTC,1.01 ± 0.062
11,TTAATCATAG,1 ± 0.066
12,TCCACCGGCT,1.03 ± 0.052
13,ATTGCGGTTT,0.991 ± 0.032
14,ATGCGGTCTG,1.04 ± 0.028
15,TGCGGGAGTG,0.965 ± 0.023
16,TAGTTGGTTT,0.999 ± 0.037
17,GAATTGGTAA,1.013 ± 0.0076
18,CATGGGGCGG,1 ± 0.052
19,TTTTTTCCGC,1.34 ± 0.35
